Source: patent US20250115680A1 (PROFOUNDBIO US, published 2025)

B1: humanized antibody 2C8 (antibody, V domains shown)
VH: QIQLVQSGAEVKKPGASVKVSCKASGYTFTTYGMSWVRQAPGQGLEWMGWINTHSGVPTYVDEFKGRVTMTLDTSTSTAYMELSSLRSEDTAVYYCARSPFDYGSRGAWFVYWGQGTTVTVSS
VL: DVVMTQSPDSLAVSLGERATINCRSSQSIVHNSGDTYLEWYQQKPGQPPKLLIYKVSNRFPGVPDRFSGSGSGTDFTLTISSLQAEDLAVYYCFQGSHVPWTFGGGTKVEIK
notes: Only variable regions are tied to 2C8 by name; It was detected with anti-human Fc
B2: humanized antibody 13C4 (antibody, V domains shown)
VH: QVQLVESGGGLVKPGGSLRLSCAASGFAFSTYDMFWIRQAPGKGLEWVSTISSGGGYTYYPGSVKGRFTISRDNAKNSLYLQMNSLRAEDTAVYYCVRPLLRDSYFYFDVWGQGTMVTVSS
VL: EIVMTQSPATLSVSPGERATLSCRASSSVSSSYLHWYQQKPGQAPRLLIFRTSNLASGIPARFSGSGSGTEYTLTISSLQSEDAAVYYCQQYSGYPLTFGQGTKLEIK
notes: Only variable regions are tied to 13C4; It was detected with anti-human Fc
B3: humanized antibody 2C5 (antibody, V domains shown)
VH: QVQLVQSGAEVKKPGASVKVSCKASGYTFTDYYINWVRQAPGQGLEWMGDINPYSGGPVYNQKFMARVTMTVDKSINTAYMELSRLRSDDTAVYYCARGDYYGSNYNYWGQGTLVTVSS
VL: EIVLTQSPATLSVSPGERATLSCRASQNIGTSIHWYQQKPGQAPRLLIKFASESISGIPARFSGSGSGTEFTLTISSLQSEDIAVYYCQQSNNWPYTFGQGTKLEIK
notes: Only variable regions are tied to 2C5; It was detected with anti-human Fc, so it has a human Fc

How the values were obtained:
[1] = target: T1, rat PTK-7 recombinant protein (rat, UniProt A0A8I6ALM9 40-713); assay: ELISA, plate-coated rat PTK7 recombinant protein
T1 construct: also called rat PTK7 protein
Protocol: (§1) Binding specificity property was tested by ELISA according to a standard protocol. Specifically, 96-well micro-plates were coated with 2 μg/mL human, cynomolgus, mouse, and rat PTK-7 recombinant protein in PBS 100 μL per well, incubated overnight at 4° C. Plates were washed twice by TBS+0.5% Tween20. 200 μL of blocking buffer (2% BSA in PBS) was added to each well and incubated at 37° C. for 2 hours. Plates were washed using the buffer mentioned above. Serially diluted antibodies were added to the ELISA plate with 100 μL per well and incubated for 1 hour at room temperature. Then plates were washed for 3 times. After washing, HRP conjugated anti-human Fc antibody solution (abcam, ab98624, diluted with blocking buffer) was added to the plate with 100 μl per well. The plates were incubated at room temperature for 1 hour and then washed for 3 times. Then TMB solution was added to plates with 100 μl per well, placed at room temperature for 5-15 mins, then the stop solution (2M H₂SO₄) was added with 50 μl per well. Finally, the result was measured by absorbance at A₄₅₀ and A₆₃₀.

[2] = target: T2, human PTK-7 recombinant protein (human, UniProt Q13308 31-704, limits assumed); assay: ELISA, plate-coated human PTK7 protein, anti-human Fc-HRP detection
T2 construct: also called human PTK7 protein
T2 sequence (looked up): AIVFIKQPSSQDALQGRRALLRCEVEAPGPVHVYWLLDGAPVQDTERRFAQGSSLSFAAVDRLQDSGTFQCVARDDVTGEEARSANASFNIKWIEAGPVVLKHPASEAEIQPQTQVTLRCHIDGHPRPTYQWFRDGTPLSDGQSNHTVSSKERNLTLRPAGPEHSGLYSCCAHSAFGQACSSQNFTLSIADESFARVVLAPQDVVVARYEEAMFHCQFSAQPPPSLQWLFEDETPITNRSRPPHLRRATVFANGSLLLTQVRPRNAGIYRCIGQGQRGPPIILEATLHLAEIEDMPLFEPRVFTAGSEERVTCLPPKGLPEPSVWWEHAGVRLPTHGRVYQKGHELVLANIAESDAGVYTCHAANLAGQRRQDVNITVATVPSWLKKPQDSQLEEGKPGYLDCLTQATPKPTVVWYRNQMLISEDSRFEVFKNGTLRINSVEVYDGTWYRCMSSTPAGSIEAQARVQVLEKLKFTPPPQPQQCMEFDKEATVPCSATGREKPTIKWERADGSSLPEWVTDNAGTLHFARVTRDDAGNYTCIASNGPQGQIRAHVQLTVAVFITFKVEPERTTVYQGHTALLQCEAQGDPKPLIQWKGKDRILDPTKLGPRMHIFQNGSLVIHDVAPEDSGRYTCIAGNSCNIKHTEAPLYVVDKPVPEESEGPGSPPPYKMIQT
Protocol: as §1

[3] = target: T3, human PTK7 on the surface of PTK7-expressing tumor cell lines (human, UniProt Q13308 31-1070); assay: flow cytometry on PA-1 cells, PE anti-human Fc detection, MFI(PE)
T3 construct: whole, on cells
T3 sequence (looked up): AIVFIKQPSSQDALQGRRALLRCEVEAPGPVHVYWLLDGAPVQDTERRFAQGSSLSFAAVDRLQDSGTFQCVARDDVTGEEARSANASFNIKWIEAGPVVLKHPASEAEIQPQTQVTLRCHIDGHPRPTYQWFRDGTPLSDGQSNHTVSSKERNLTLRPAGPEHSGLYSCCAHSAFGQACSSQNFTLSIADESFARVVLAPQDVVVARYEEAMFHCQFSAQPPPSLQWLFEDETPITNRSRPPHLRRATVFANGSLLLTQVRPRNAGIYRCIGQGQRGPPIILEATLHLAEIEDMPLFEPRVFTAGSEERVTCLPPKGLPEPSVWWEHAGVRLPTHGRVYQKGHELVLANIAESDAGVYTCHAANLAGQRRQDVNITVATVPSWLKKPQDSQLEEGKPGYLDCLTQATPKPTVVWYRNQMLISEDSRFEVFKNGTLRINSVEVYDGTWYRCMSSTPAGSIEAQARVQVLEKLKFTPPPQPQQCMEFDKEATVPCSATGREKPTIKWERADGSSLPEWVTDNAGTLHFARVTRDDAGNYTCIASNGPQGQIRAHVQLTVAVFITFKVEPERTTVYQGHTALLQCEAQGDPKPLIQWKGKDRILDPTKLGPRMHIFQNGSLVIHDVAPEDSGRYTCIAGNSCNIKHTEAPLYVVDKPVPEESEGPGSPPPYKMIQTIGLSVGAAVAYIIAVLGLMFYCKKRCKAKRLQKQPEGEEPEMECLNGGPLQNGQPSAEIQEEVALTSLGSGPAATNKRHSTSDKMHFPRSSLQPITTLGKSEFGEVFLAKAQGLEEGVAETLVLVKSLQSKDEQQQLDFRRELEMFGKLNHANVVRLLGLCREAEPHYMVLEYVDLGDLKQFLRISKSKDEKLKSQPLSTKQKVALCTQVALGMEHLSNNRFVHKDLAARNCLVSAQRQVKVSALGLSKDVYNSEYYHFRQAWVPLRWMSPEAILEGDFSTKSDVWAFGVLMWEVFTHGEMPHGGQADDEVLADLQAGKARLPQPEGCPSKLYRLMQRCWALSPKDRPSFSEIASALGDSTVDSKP

[4] = target: T2, human PTK-7 recombinant protein; assay: ELISA, plate coated with 2 ug/mL human PTK-7 recombinant protein, HRP anti-human Fc detection, OD450
Protocol: as §1

Binder	binding result [1]	EC50 [2]	EC50 [3]	EC50 [4]
B1	no binding	0.032 nM	0.562 nM	0.0317 nM
B2	no binding	0.022 nM	0.808 nM	0.0221 nM
B3	–	0.027 nM	0.711 nM	0.0267 nM
